Data taken from patent US20220195015A1 (published 2022).
Changes are numbered by the printed parent chain.

B1: C097 (antibody, V domains shown)
VH: QVQLQESGPGLVKPSQTLSLTCTVSGGSISSGPYYWSWIRQHPGKGLEWIGYIYYSGSTYYNPSLKSRVTISVDTSKKQFSLNLNSVTAADTAVYYCARVWQYYDSTGSFDYWGQGTLVTVSS
VL: DIVMTQSPLSLPVTPGEPASISCRSSRGLLHSNGYNYLDWYLQKPGQSPQLLIYLGSNRASGVPDRFSGSGSVTDFTLNISRVEAEDVGVYYCMQALQTPFTFGPGTKVDIK
B2: C098 (antibody, V domains shown)
VH: EVQLVESGGGLIQPGGSLRLSCAASGFTVSSNYMSWVRQAPGKGLEWVSVIYSGGSTYYADSVKGRFTISRDNSKNTLYLQMNSLRAEDTAVYYCARDLYSSGGTDIWGQGTMVTVSS
VL: not shown
B3: C099 (antibody, V domains shown)
VH: B2 VH with F27I, I51M, S53A, Y58F, N73D, Y79F, V92I
VL: EIVLTQSPGTLSLSPGERATLSCRASQSIGSSYLAWYQQKPGLAPRLLIYGASRRATGIPDKFSGSGSGADFTLTISRLEPEDFAVYYCQQYGSSPGTFGQGTKVEIK
B4: C522 (antibody, V domains shown)
VH: EVQLVESGGGLIQPGGSLRLSCAASEFIVSRNYMSWVRQAPGKGLEWVSVIYSGGSTFYADSVKGRFTISRDESKNTLYLQMNSLRAEDTAIYYCARDRGGGILDYWGQGTLVTVS
VL: DIQMTQSPSSLSASVGDRVTITCQASQDINIFLNWYQQKPGKAPKLLIYDASSLETGVPSRFSGSGSGTDFTFTISSLQPEDFATYYCQQYGNLPKYTFGQGTKLEIK
B5: C044 (antibody, V domains shown)
VH: EVQLVESGGGLVQPGGSLRLSCAASGFTFSSYSMNWVRQAPGKGLEWVSYISSSSSTIYYADSVKGRFTISRDNAKNSLYLQMNSLRDEDTAVYYCAREAHDGALTDYGDYLNWFDPWGQGTLVTVSS
VL: SYELTQPPSVSVAPGKTARITCGGNNIGSKSVHWYQQKPGQAPVLVIYYDSDRPSGIPERFSGSNSGNTATLTISRVEAGDEADYYCQVWDSSSDHLYWVFGGGTKLTVL
B6: C045 (antibody, V domains shown)
VH: B5 VH with S31T, Y59H
VL: B5 VL with N25T, S31N, S51N, S92T, S93T, L97F
B7: C095 (antibody, V domains shown)
VH: VQLVEAGGGVVQPGRSLRLSCAASGLAFSIYGMHWVRQAPGKGLEWVAIVAQDGSKKYYADSVKGRFTISRDNSKNTLYLEMNSLRTEDTAVYYCVKEGRPSDTVVVVAFDYWGQGSLVTVSS
VL: DIQLTQSPSSLSASVGDRVTITCRASQSISNYLNWYQQKPGKAPKVIIYAASSLQSGVPSRFSGSGSGTDFTLTISSLQPEDFATYYCQQSHSIPRTFGQGTKVEIK
B8: C096 (antibody, V domains shown)
VH: EVQLVESGGGLVKPGGSLRLSCVASGFTFRNAWMNWVRQAPGKGLEWVGRIKANSDGGTIDYAEPVQGRFTISREDSRNSLYLQMNSLKTEDTAVYYCTTGPQYDDFGHSYIVDSWGPGTLVTVSS
VL: DIVMTQSPLSLPVTLGEPASISCRSSQSLLHSNGFHFLEWYLQKPGQSPQLLIYVGSNRASGVPDRFSGSGSGTDFTLKISRVEAEDVGVYYCMQTLQTPLTFGGGTKVEIK
B9: C043 (antibody, V domains shown)
VH: QLVQSGPEVKKPGTSVKVSCKASGFTFYNSAVQWVRQARGQRLEWVGWIVVGSGNTDYAQKFQERVTMTRDLSTNTAYMEVNSLRSEDTAVYYCAAPYCSGGTCLDGFDIWGQGTMVTVSS
VL: EIVLTQSPGTLSLSPGERGTLSCRASQSVRSNYLAWYKQRPGQAPRLLVYGASSRATGIPDRFSGSGSGTDFTLTISRLEPEDFAVYYCQQYGSSPWTFGQGTKVEIK
B10: C097 (antibody, V domains shown)
VH: B1 VH
VL: B1 VL
B11: C098 (antibody, V domains shown)
VH: B2 VH
VL: not shown
B12: C099 (antibody, V domains shown)
VH: B2 VH with F27I, I51M, S53A, Y58F, N73D, Y79F, V92I
VL: B3 VL
B13: C048 (antibody, V domains shown)
VH: VQLQESGPGLVKPSETLSLTCAVSGGSVSSGNYYWNWIRQPPGKGLEWIGYIYYSGSTNYNPSLKSRVTISVDTSKNQFSLKLNSVTAADTAVYHCARETYYYDSSGYYISDAFDIWGQGTMVTVSS
VL: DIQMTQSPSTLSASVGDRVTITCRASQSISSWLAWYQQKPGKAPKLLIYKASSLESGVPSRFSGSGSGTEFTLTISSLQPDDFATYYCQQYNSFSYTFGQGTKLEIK
B14: C044 (antibody, V domains shown)
VH: B5 VH
VL: B5 VL
B15: C045 (antibody, V domains shown)
VH: B5 VH with S31T, Y59H
VL: B5 VL with N25T, S31N, S51N, S92T, S93T, L97F
B16: C095 (antibody, V domains shown)
VH: B7 VH
VL: B7 VL
B17: C043 (antibody, V domains shown)
VH: B9 VH
VL: B9 VL
B18: C049 (antibody, V domains shown)
VH: QVQLQESGPGLVKPSETLSLTCTVSGGSVSSGTFYWSWIRQPPGKGLEWIGYIHYSGSTNYNPSLKSRVTISVDTSKNQFSLRLSSVTAADTAVYYCARESFYYDRSGYYGSDAFDIWGQGTMVTVSS
VL: DIQMTQSPSTLSSSVGDRVTITCRASQNISRWLAWYQQKPGKAPKLLIYKASTLESGVPSRFSGSGSGTKFTLTISSLQPDDFATYYCQQYNSYLYTFGQGTKLEIK
B19: C584 (antibody, V domains shown)
VH: EVQLVESGGGLVQPGGSLRLSCAASGFTFSTYDMHWVRQATGKGLEWVSAIGTAGDKYYPGSVKGRFTISRENAKNSLYLQMNSLRAGDTAVYYCVRAGYSSGWPLYWYFDLWGRGTLVTVSS
VL: DIQMTQSPSSLSASVGDRVTITCRASQSISSYLNWYQQKPGKAPKFLIYAASSLQSGVPSRFSGSGSGTDFTLTISNLQPEDFATYYCQQSYRTPPEFTFGPGTKVDIK
B20: C582 (antibody, V domains shown)
VH: QVQLVESGGGVVQPGRSLRLSCVASGFTFSYFDMHWVRQAPGKGLEWVALISHDGSTTFYGDSARGRFTISRDNSRNTLDLQMNSLRPEDTAVYFCAKPVDAAMFDFWGQGTLVTVS
VL: SYELTQPPSVSVAPGKTARITCGGNNIGSKSVHWYQQRPGQAPVLVIYYDSDRPSGIPERFSGSNSGNTATLTISRVEAGDEADFYCQVWDRSTNHLVVFGGGTQLTVL
B21: C583 (antibody, V domains shown)
VH: EVQLVESGGGLIQPGGSLRLSCAASILTVSRNYMSWVRQAPGKGLEWVSSIYSGGTTYYADSVKGRFTISRDDSKNTLYLQMNSLRAEDTAVYYCARPVVGGRAGMDVWGQGTTVTVSS
VL: DIQMTQSPSSLSASVGDRVTITCQASQDINKYLNWYQQKPGKAPKLLIYDASNLETGVPSRFSGSGSGTDFTFTISSLQPEDIGTFYCLHNDNPPLTFGGGTKVEIK
B22: C586 (antibody, V domains shown)
VH: EVQLVESGGGLIQPGGSLRLSCTASGLIVSSNYMSWIRQAPGKGLEWVSLIYSGGSTFYADSVKGRFTISRDNSKNTLFLHMNSLRAEDTAVYYCARHPYGTDVWGQGTTVTVSS
VL: DIQMTQSPSSLSASVGDRVTITCQASQDIVKYLNWYQQKSGKAPKLLIHDASNLETGVTSRFSGSGSGTHFTFTISSLQPEDLATYYCQQYDNLPITFGQGTRLEIK
B23: C585 (antibody, V domains shown)
VH: QVQLQESGPGLVKPSETLSLTCTVSGDSISSYFWSWIRQPPGRGLEWIGYIHDSVNTNYNPSLKSRVTISVDTSKSQFSLRLSSVTAADTAVYYCARCAWLRGSFDYWGQGTLVTVSS
VL: NFMLTQPHSVSESPGKTVTISCTGSSGSIASNYVQWYQQRPGSAPTTVIYEDNQRPSGVPDRFSGSIDSSSNSASLTISGLKTEDEADYYCQSYDFSSHYVFGTGTKVTVL

Each binder was assayed against SARS-CoV-2 RBD (wild type) (SARS-CoV-2, UniProt P0DTC2 319-539) (assay: ELISA on coated RBD).
For B1, the EC50 was 0.00345 µg/mL.
B2 gave an EC50 of 0.0077 µg/mL.
Work on B3 yielded an EC50 of 0.00245 µg/mL.
B4 showed an EC50 of 0.00093 µg/mL.
With B5 the EC50 was 1.82 µg/mL.
Work on B6 yielded an EC50 of 0.007 µg/mL.
B7 was tested, and the EC50 was 0.0011 µg/mL.
Binder B8 has an EC50 of 0.00518 µg/mL.
For B9, the EC50 was 0.0121 µg/mL.

The binders below were run against SARS-CoV-2 spike protein on HIV-1 pseudotyped particles (SARS-CoV-2, UniProt P0DTC2 14-1254) (assay: cell-based or functional assay).
With B10 the “Neutralization IC50” value was 0.0096 µg/mL and the “Neutralization IC90” value was 0.0311 µg/mL.
B11 was tested, and the “Neutralization IC50” value was 0.479 µg/mL and the “Neutralization IC90” value was 4.25 µg/mL.
In the case of B12, the “Neutralization IC50” value is reported as 0.0272 µg/mL and the “Neutralization IC90” value is reported as 0.0861 µg/mL.
With B13 the “Neutralization IC50” value was 0.0622 µg/mL and the “Neutralization IC90” value was 0.523 µg/mL.
For B14, the “Neutralization IC50” value was greater than 10 µg/mL and the “Neutralization IC90” value was greater than 10 µg/mL.
In the case of B15, the “Neutralization IC50” value is reported as greater than 10 µg/mL and the “Neutralization IC90” value is reported as greater than 10 µg/mL.
With B16 the “Neutralization IC50” value was 0.0113 µg/mL and the “Neutralization IC90” value was 0.0526 µg/mL.
With B17 the “Neutralization IC50” value was 0.0106 µg/mL and the “Neutralization IC90” value was 0.0744 µg/mL.
In the case of B18, the “Neutralization IC50” value is reported as 0.0181 µg/mL and the “Neutralization IC90” value is reported as 0.129 µg/mL.

Each binder was assayed against SARS-CoV-2 receptor binding domain (RBD), wild type (SARS-CoV-2, UniProt P0DTC2 319-539) (assay: ELISA, RBD coated on the plate, antibody titrated).
Work on B19 yielded an EC50 of 0.0105 µg/mL.
In the case of B20, the EC50 is reported as 0.00843 µg/mL.
B21 gave an EC50 of 0.00442 µg/mL.
B22 showed an EC50 of 0.00542 µg/mL.
Binder B23 has an EC50 of 0.011 µg/mL.
